Assay results from US8263350B2, “Molecular affinity clamp technology and uses thereof” (The University of Chicago, priority 2009, dated 2012).
Ends that are not written are not given here.

Assays:
ePDZ-b2 = experiment: SPR binding of the new tag peptide to ePDZ-b2; details: FIG. 9, SPR, ePDZ-b2 immobilized
Protocol: The affinity clamps were immobilized and the target peptides in the form of yeast SUMO fusion protein were used as the analytes. (a) Sensorgrams for the interaction of the wild-type ARVCF peptide and ePDZ-b2. Data with 0, 10, 20, 40, 80 and 160 nM peptide are shown in black, and calculated curves from the global fittings of the 1:1 Langmuir binding model are in orange. The estimated dissociation constant is indicated. The peptide sequence is also shown. (b) Sensorgrams for the interaction of the new tag peptide to ePDZ-b2. Data with 0, 10, 20, 40 and 80 nM target are shown.
(§1) Affinity Measurements. SPR measurements were performed in 20 mM HEPES/NaOH buffer (pH 7.4), 150 mM NaCl, and 0.005% Tween 20 at 25° C. on a BIAcore 2000 instrument. The affinity clamp or the linker mutant was immobilized on a Ni-NTA chip to the level of approximate 300 RU, and different concentrations of SUMO-peptide fusion protein were injected. The kinetic data were analyzed using the one-to-one binding model in BIAEvaluation (BIAcore). For weak interactions (Kd>5 μM), Kd values were determined from the saturation curve of the maximum RU values.

δ-catenin peptide = target: T1, δ-catenin peptide (Homo sapiens, UniProt Q9UQB3); experiment: SPR affinity measurement of affinity clamps with the δ-catenin peptide; format: binding
T1 construct: His tag (N, cleaved yes); made in house; host or cells: E. coli BL21(DE3)
Protocol: (§2) Protein Expression and Purification. All proteins used in this study were expressed using derivatives of the pHFT2 expression vector in E. coli BL21(DE3) cells. Protein expression was induced with 500 μM IPTG for three to five hours at 25° C. Proteins were purified with Ni affinity chromatography following standard protocols. When necessary, a second step of purification with Sephacryl S-100 column in PBS (50 mM sodium phosphate containing 150 mM NaCl, pH 7.4) was performed to ensure that proteins were monomeric. For protein crystallization and SPR experiments, the N-terminal His tag was cleaved with TEV protease and the cleaved protein was purified using Ni affinity chromatography.
as §1

[1] = system: ARVCF peptide (alanine substituted); experiment: Ala-scanning of the ARVCF peptide with SPR affinity measurements; format: binding; details: substitution at each of the four positions −7 to −4 of the ARVCF peptide
Source text: Alanine-scanning mutagenesis analysis. Although the phage-display library approach is powerful in determining general trends in sequence specificity, large-scale sequencing is necessary for quantitatively characterizing protein-interaction energetics (Skelton et al., 2003; Sidhu and Koide, 2007). This requirement is acute particularly when there is a strong amino acid preference and thus recovered clones are dominated by a particular pattern, as in our case above. Accordingly, to complement the library sorting experiments described above, the inventors performed Ala-scanning experiments of the ARVCF peptide coupled with affinity measurements using SPR. Because the goal was to understand the differences in target recognition of the affinity clamps, and because the sequence specificity of the C-terminal four residues is predominantly defined by the specificity of the parent PDZ domain, the inventors analyzed only those positions that differed between the ARVCF and δ-catenin peptides.
(§3) Site-directed mutagenesis. Mutant forms of the SUMO-ARVCF peptide fusion protein and linker mutants of affinity clamps were constructed using Kunkel mutagenesis.
Affinity Measurements. […] The kinetic data were analyzed using the one-to-one binding model in BIAEvaluation (BIAcore). […]

ARVCF peptide = target: T2, ARVCF peptide (Homo sapiens, UniProt O00192); experiment: SPR affinity measurement of affinity clamps with the ARVCF peptide; format: binding; details: 25° C.
T2 construct: His tag (N, cleaved yes); made in house; host or cells: E. coli BL21(DE3)
Protocol: as §2, §3, §1

RGSIDTWV-COOH (RGSIDTWV-OH) [used in SPR as yeast SUMO fusion]
affinity compared with the original (ARVCF) peptide (ePDZ-b2): higher affinity | dissociation rate compared with the original (ARVCF) peptide (ePDZ-b2): much slower

B1: Erbin PDZ: wild-type Erbin PDZ domain, the parent capture domain of the affinity clamps (protein)
chain: EIRVRVEKDPELGFSISGGVGGRGNPFRPDDDGIFVTRVQPEGPASKLLQPGDKIIQANGYSFINIEHGQAVSLLKTFQNTVELIIVREV
discrimination between ARVCF peptide and δ-catenin peptide (δ-catenin peptide): almost equally | Kd (δ-catenin peptide; SPR, 25° C.): 6.3 µM | Specificity Index (δ-catenin peptide; ratio of the Kd for δ-catenin to the Kd for ARVCF): 3 | decrease in binding (ΔΔG) on alanine substitution [1]: only small effects | Kd (ARVCF peptide): 2.2 µM
